Columns and labels:
[1] = biological target: T1, IGF-I F49A on phage (G1S-A70V template) (human; bacteriophage M13); assay: competitive phage ELISA; conditions: remark: other sources report otherwise
T1 chain: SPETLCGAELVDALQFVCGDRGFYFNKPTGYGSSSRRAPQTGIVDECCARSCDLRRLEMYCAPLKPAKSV

[2] = biological target: T1, IGF-I F49A on phage (G1S-A70V template) …; assay: competitive phage ELISA; ratio against IGFBP-3; conditions: remark: other sources report otherwise
[3] = biological target: T2, IGF-I P2A on phage (G1S-A70V template) (human; bacteriophage M13); assay: competitive phage ELISA
T2 construct: not shown: M13 gene III fragment (residues 249-406), the display carrier, and its junction to IGF-I
Description: (§1) Phage particles were harvested and resuspended in PBS buffer as described in Lowman, H. B., “Phage Display of Peptide Libraries on Protein Scaffolds,” in Cabilly, S. (ed.), Combinatorial Peptide Library Protocols (Humana Press Inc.: Totowa, N.J., 1998), pp. 249-264. Then phage concentrations were normalized to yield a maximal ELISA signal of 0.2-0.4 for each mutant (Lowman, in Cabilly, S. (ed.), supra). […] After blocking, the plates containing immobilized target were washed with 0.05% TWEEN™/PBS buffer and subsequently incubated with 80 μl/well of the premixed phage-competitor solutions for 1 hour at room temperature. After washing, bound phage was detected with 80 μl/well of a solution containing a primary rabbit anti-phage polyclonal antibody and a secondary goat anti-rabbit monoclonal antibody-horseradish peroxidase conjugate in 0.5% TWEEN 20™/PBS. o-Phenylenediamine (Sigma) and tetramethylbenzidine (Kirkegaard and Perry) were used as chromogenic substrates, resulting in product detection at 492 and 450 nm, respectively. IC₅₀ values were determined by fitting the binding data to a generic saturation curve (Lowman, in Cabilly, S. (ed.), supra).
(§2) At least two different clones of every mutant were tested.

[4] = biological target: IGF-I S1A on phage (G1S-A70V template) (human; bacteriophage M13); assay: competitive phage ELISA
Description: as §1, §2

B1: human IGFBP-1 (other, UniProt P08833 26-259, looked up)
chain: APWQCAPCSAEKLALCPPVSASCSEVTRSAGCGCCPMCALPLGAACGVATARCARGLSCRALPGEQQPLHALTRGQGACVQESDASAPHAAEAGSPESPESTEITEEELLDNFHLMAPSEEDHSILWDAISTYDGSKALHVTNIKKWKEPCRIELYRVVESLAKAQETSGEEISKFYLPNCNKNGFYHSRQCETSMDGEAGLCWCVYPWNGKRIPGSPEIRGDPNCQIYFNVQN
notes: Recombinant secreted protein
B1 showed a relative IC50 (IC50 mut/IC50 G1S-A70V) [1] greater than 100, a relative specificity (relative IC50 IGFBP-1/relative IC50 IGFBP-3) [2] greater than 28 and an IC50 [3] of 11 nM. For the same binder, the IC50 [4] was 5.2 nM.
